B1: AB-000231 (antibody, V domains shown)
VH: QVHLVESGGGVVQPGRSLRLSCAASGFTFRNYGIHWVRQAPGKGLEWVAVIWYDGSREFYADSVEGRFTVSRDNSKNTVFLQMNSLRVDDTAVYYCARAGYSDTSGYGDHWGQGTLVSVSS
VL: QSVLTQPPSVSGAPGQRVTISCTGGSSNIGAGYDVHWYQQLPGTAPKLLISHNNNRPSGVPDRFSGSKSGTSASLVIAGLQAEDEADYYCQSYDRRLSSSWVFGGGTRLTVLS
B2: AB-000391 (antibody, V domains shown)
VH: EVQLVQSGGGLVQPGGSLRLSCVASGFTLSSYEMNWVRQAPGKGLEWVSFISSSGSKKRYADSVKGRFTVSRDNAKNSLSLQMNSLRAEDTAVYYCARDHSTSDREYGLDVWGQGATVTVSS
VL: DVVMTQSPLSLPVTLGQPASISCRSGQSLLYSDGNTYLYWFQQRPGQSPRRLIYKVSNRDPGVPERFSGSGSGTDFTLKISRVEAEDVGIYFCLQGTHWPYTFGRGTKLEIK
B3: AB-000373 (antibody, V domains shown)
VH: QVLLVESGGGVVQPGGSLRLSCTASGFTFKNYGMHWVRQAPGKGLEWVAVIWFDGSNEFYADSVEGRFTISRDNSKNTLYLQTNSLRAEDTAVYYCARSYTSSWLGFDFWGQGTLVTVSS
VL: DAVMTQTPLSLSVTPGQPASISCKSGQSLLHSDGKTYLYWYLQKPGQSPQLLIYEVSSRFSGVPDRFSGSGSGTDFTLKISRVEAEDVGVYYCMRGIHPRTFGQGTKVEIK
B4: AB-000394 (antibody, V domains shown)
VH: QAQPVESGGGVVQPGKSLRLSCAASGFTFRNFGMHWVRQAPGKGLEWVAVIWHDGSNQFYADSVEGRFTISRDNSKNTLYLQMDSLRVEDTAMYYCARDRGYSGSWGYFDHWGQGTLVTVSS
VL: EIVLTQSPATLSLSPGERATLSCRASQSISDYLAWYQQKPGQAPRLLIYDASFRATGIPARFSGSGSGTDFTLTISSLEPEDFAVYYCQQRSIGFTFGPGTKVDIK
B5: AB-001545 (antibody, V domains shown)
VH: QVQLVESGGGVVQPGRSLRLSCAASGFTFSSYGMHWVRQAPGKGLEWVAVIWYDGSNKYYADSVKGRFTISRDNSKNTLYLQMNSLRAEDTAVYYCARDLDYSNHNWFDPWGQGTLVTVSS
VL: B4 VL with I29V, D31S, F53N, I93N, G94W, P99Q, K102R, V103L, D104E
B6: AB001511 (antibody, V domains shown)
VH: QVQLVESGGGVVQPGRSLRLSCAASGFTFSSYGMHWVRQAPGKGLEWVAIIWYDGSNKYYADSVKGRFTISRDNSKNTLYLQMNSLRAEDTAVYYCARDTDDYYDAHTMDVWGQGTTVTVSS
VL: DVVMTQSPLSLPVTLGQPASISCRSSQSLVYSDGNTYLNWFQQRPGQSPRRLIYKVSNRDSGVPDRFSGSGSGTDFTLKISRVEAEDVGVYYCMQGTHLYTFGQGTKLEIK
B7: AB-000327 (antibody, V domains shown)
VH: QVQLVESGGGVVQPGRSLRLSCAASRFTFKNYGMHWVRQGPGKGLEWVAVIWYDGSQEYYVDSVRGRFTISRDNSKDTLYLQMNSLRAEDTAVYYCVRDGRYRTSHQTSTGFFDLWGQGTLVTVSS
VL: QSMLTQPPSVSGAPGQRVTISCTGSSSNIGADYDVHWYQQLPGTAPKLLIYGNNNRPSGVPDRFSGSKSGTSASLAITGLQPEDEAEYYCQSYDSSLSGSFVFGTGTKVTVL
B8: AB001533 (antibody, V domains shown)
VH: QVQLVESGGGVVQPGRSLRLSCAASGFTFNSYGMHWVRQAPGKGLEWVALISFDGTNKFYADSVKGRFTISRDNSKNTLYLQMNSLRAEDTALYHCATDSLFYYDFHLFDYWGQGTLVTVSS
VL: DIVLTQTPLSSPVTLGQPASISCRSSQSLVYSDGNTYLNWLQQRPGQPPRLLIYKISNRFSGVPDRFSGSGAGTDFTLKISRVEAEDVGVYYCMQATQLYTFGQGTKLEIK
B9: AB001578 (antibody, V domains shown)
VH: QVQLVESGGGVVQPGRSLRLSCAASGFSFSNYGMHWVRQAPGKGLEWVAIIWYDGSNKYYADSVKGRFTISRDNSKNTLYLQMNSLRAEDTAVYYCARDGTIWDDSRGYILDYWGQGTLVTVSS
VL: EIVLTQSPATLSLSPGERATLSCRASQGVSSYLAWYQQKPGQAPRLLIYDASNRATGIPARFSGSGSGTDFTLTISSLEPEDFAVYYCQQRSNWPPTFGPGTKVDIK
B10: AB-000376 (antibody, V domains shown)
VH: QVQLVESGGGVVQPGRSLRLSCTASGFTFSNYGMHWVRQAPGRALEWVAIIWHDGSNKYYADSVKGRFTISRDNSKNTLYLQMNNVRVEDTAVYHCAKVGGFGELYEAFDFWGQGTLVTVSS
VL: DIQMTQSPSTLSASVGDRVTITCRASHSISNWLAWYQQKPGKAPRLLIYKASSLNSGVPSRFSGSASGTEFTLTISSLQPDDFATYFCQQYNAYWTFGQGTKVEIK
B11: AB001396 (antibody, V domains shown)
VH: QVQLVESGGGVVQPGRSLRLSCAASGFTFSSYGMHWVRQAPGKGLEWVAIIWYDGSHKYYADSVKGRFTISRDNSKNTLYLQMNSLRAEDTAVYHCARVYQPTYYYDSSRGEAFDIWGQGTMVTVSS
VL: B10 VL with H27Q, N31S, R45K, S53N, N55G, A66G, F87Y, A93S
B12: AB001529 (antibody, V domains shown)
VH: QVQLVESGGGVVQPGRSLRLSCVASGFSFRSYGMHWVRQAPGKGLEWVAIIWYDGSNKYYAHSVKGRFTISRDNSKNTLYLQMNSLRAEDTAIYYCAKDGGTETTWGNAFDIWGQGTMVTVSS
VL: B10 VL with H27Q, N31S, R45K, N55E, A66G, S76N, S77N, F87Y, A93S
B13: AB001458 (antibody, V domains shown)
VH: EVQLVESGGGLVQPGRSLRLSCTASGFTFGDYAMSWFRQAPGKGLEWVSFIRSKTYGGSTEYAASVKGRFTISRDDSKSIAYLQMHSLKTEDTAFYYCTRVSAAAGVGDYWGQGTLVTVSS
VL: EIVMTQSPATLSVSPGERATLSCRASQSVGSNLAWYQQKPGQAPRLLIYGASTRATGLPARFSGSGSATEFTLTISSLQSEDFAVYYCQQYNTWWTFGQGTKVEIK
B14: AB001558 (antibody, V domains shown)
VH: QVQLVESGGGVVQPGRSLRLSCAASGFTFSSYGMHWVRQAPGKGLEWVAVIWYDGNNKYYVDSVKGRFTISRDNSKNTLYLQMNSLRAEDTAVYYCARDHDADYVEKWGAFDLWGQGTMVTVSS
VL: B13 VL with G30S, T53A, L58I, A68G, T93N, W94G, W95R, K106T
B15: AB-000325 (antibody, V domains shown)
VH: QVQLVESGGGVVQPGRSLRLSCAASRFPFKNYGMHWVRQAPGKGLEWVALIWFDGSNKFYVDSVEGRFTISRDNSNNMLYLEMNSLRADDTAVYYCARAGRYDDSGYLDYWGQGTLVTVSS
VL: B13 VL with N32K, Q38H, L58I, A68G, I75V, T93H, W95Y, V103L
B16: AB001554 (antibody, V domains shown)
VH: QVQLVESGGGVVQPGRSLRLSCAASGFTFSSYGMHWVRQAPGKGLEWVAVIWYDGSNKYHADSVKGRFTISRDNSKNTLYLQMNNLRSEDTAVYYCAKDETLWFGELSDGFDIWGQGTMVTVSS
VL: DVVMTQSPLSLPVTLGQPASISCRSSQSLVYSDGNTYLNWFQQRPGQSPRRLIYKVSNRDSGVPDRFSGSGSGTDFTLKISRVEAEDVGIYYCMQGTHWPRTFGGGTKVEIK
B17: AB-000338 LS (antibody, V domains shown)
VH: QVQLVESGGGVVQPGRSLRLSCAASGFSFSTYGMHWIRQVPGKGLEWVAIIWHDGSKEFYADSVKGRFTISRDNSKKKLYLQMNSLRAEDTAIYYCVKDDFDSSGHSYFHYWGQGTLVTVSS
VL: GVVMTQSPLSLPVTLGQPASISCRSSQSLVHSDGNTYVHWFQQRPGQSPRRLIYKVSNRDSGVPDRFSGSGSGTDFTLKISRVEAEDVGVYYCMQGTQWWTFGQGTKVEIK
B18: AB001455 (antibody, V domains shown)
VH: QVQLVESGGGVVQPGRSLRLSCAASGFTFSNYGMHWVRQAPGKGLEWVAIIWYDGSSKYYADSVRGRFTISRDNSKNTLFLQMNSLRAEDTAVYYCARDDYYSSAYNHLGYWGQGTLVTVSS
VL: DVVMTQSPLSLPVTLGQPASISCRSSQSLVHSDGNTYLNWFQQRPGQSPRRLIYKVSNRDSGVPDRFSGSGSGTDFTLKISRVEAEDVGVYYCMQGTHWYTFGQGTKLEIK

Residue numbers refer to the chain shown, from its start.

As usually defined, the Kd is the equilibrium constant for the complex coming apart. Usually koff stands for the rate constant with which the complex falls apart. As usually defined, the kon is a measure of how fast the partners come together.

In one experiment the target is T1, recombinant Plasmodium falciparum circumsporozoite protein (CSP) (Plasmodium falciparum, UniProt Q7K740 21-375).
T1 construct: also called recombinant CSP
T1 sequence (Q7K740 21-375 limits assumed): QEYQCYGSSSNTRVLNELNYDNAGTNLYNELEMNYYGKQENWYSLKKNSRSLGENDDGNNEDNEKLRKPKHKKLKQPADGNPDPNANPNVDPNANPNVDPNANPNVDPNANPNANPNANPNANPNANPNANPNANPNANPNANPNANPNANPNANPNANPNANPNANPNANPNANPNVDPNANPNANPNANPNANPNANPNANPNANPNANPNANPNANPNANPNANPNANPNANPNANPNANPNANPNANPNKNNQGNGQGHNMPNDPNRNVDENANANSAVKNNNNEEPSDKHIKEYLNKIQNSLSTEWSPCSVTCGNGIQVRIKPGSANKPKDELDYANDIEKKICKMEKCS
Description: SPR, recombinant CSP.
Turning to B1, the Kd was 328 pM, the koff was 0.00142 s⁻¹ and the kon was found to be 4.34e+06 M⁻¹ s⁻¹.

As to B2, the Kd worked out at 616 pM, the koff is 0.000535 s⁻¹ and the kon amounted to 869000 M⁻¹ s⁻¹.

Turning to B3, the Kd was 59.2 pM, the koff amounted to 0.00152 s⁻¹ and the kon turned out to be 2.58e+07 M⁻¹ s⁻¹.

For B4, the Kd is 105 pM, the koff amounted to 0.00156 s⁻¹ and the kon worked out at 1.48e+07 M⁻¹ s⁻¹.

For B5, the Kd is 4960 pM, the koff amounted to 0.000442 s⁻¹ and the on-rate (kon) worked out at 89000 M⁻¹ s⁻¹.

Turning to B6, the Kd was determined as 2030 pM, the koff worked out at 0.000525 s⁻¹ and the kon turned out to be 259000 M⁻¹ s⁻¹.

For B7, the Kd is 467 pM, the koff turned out to be 0.00143 s⁻¹ and the kon turned out to be 3.06e+06 M⁻¹ s⁻¹.

Consider B8, for which the Kd was found to be 248 pM, the koff was 0.000669 s⁻¹ and the kon came to 2.69e+06 M⁻¹ s⁻¹.

As to B9, the Kd was found to be 2640 pM, the koff turned out to be 0.000977 s⁻¹ and the kon stood at 369000 M⁻¹ s⁻¹.

Turning to B10, the Kd was 201 pM, the koff was found to be 0.000866 s⁻¹ and the kon stood at 4.31e+06 M⁻¹ s⁻¹.

Take B11: the Kd came to 1470 pM, the koff was found to be 0.000393 s⁻¹ and the kon was 268000 M⁻¹ s⁻¹.

On to B12, for which the Kd is 1640 pM, the koff was determined as 0.00108 s⁻¹ and the kon was determined as 660000 M⁻¹ s⁻¹.

Consider B13, for which the Kd came out at 921 pM, the koff stood at 0.00171 s⁻¹ and the kon worked out at 1.86e+06 M⁻¹ s⁻¹.

Turning to B14, the Kd was determined as 40200 pM, the koff amounted to 0.000797 s⁻¹ and the kon amounted to 19800 M⁻¹ s⁻¹.

Turning to B15, the Kd was found to be 52.9 pM, the koff stood at 0.00215 s⁻¹ and the kon amounted to 4.07e+07 M⁻¹ s⁻¹.

With B16, the Kd turned out to be 2290 pM, the koff worked out at 0.000716 s⁻¹ and the kon amounted to 313000 M⁻¹ s⁻¹.

On to B17, for which the Kd worked out at 130 pM, the koff amounted to 0.00147 s⁻¹ and the kon was 1.13e+07 M⁻¹ s⁻¹.

For the molecule B18, the Kd is 1370 pM, the koff is 0.000831 s⁻¹ and the kon turned out to be 608000 M⁻¹ s⁻¹.

For the next experiment, the target named is T1, recombinant Plasmodium falciparum …. Briefly: binding affinity column of the in vivo table (SPR, CSP).
Consider B3, for which the Kd was 59.2 pM.

With B4, the Kd worked out at 105 pM.

In the case of B7, the Kd was 467 pM.

With B8, the Kd stood at 248 pM.

Turning to B13, the Kd turned out to be 921 pM.

Take B17: the Kd amounted to 130 pM.

On to B18, for which the Kd was 1370 pM.

The record behind these values is US20250296995A1 (GlaxoSmithKline, published 2025).
